These results are taken from US5432156A, “Therapeutic agent for digestive tract diseases” (Nisshin Flour Milling Co., Ltd., priority 1993, dated 1995).

The test system of one series is intestinal mucosae. As to the kind of experiment: Example 1: nutritional (trophic) effect on the intestinal mucosae of rats fed an elemental nutrition. The class given is in vivo, male SD rats. Here is the method:
An experiment was performed in male SD rats weighing 140-160 g which had been fed on standard food under light-dark condition of a cycle of 12 hours. The food which was replaced by an elemental nutrition (Elental®, Morishita-Roussel Japan) was taken ad lib., and remained unchanged until the experiment was finished. After feeding on the component nutrition for 3 days, administration of glicentin prepared as described below was started.
Gelatin was dissolved in warm water to a weight ratio of 16%, and the solution autoclaved and cooled to room temperature. To 40 ml of the gelatin solution was added a solution of 1 mg of glicentin in 10 ml of distilled water with stirring at room temperature. The mixture was divided into test tubes, freeze dried and stored for use.
The gelatin solution was subcutaneously given at a dose of 10 μg per glicentin every 12 hours for 7 days to examine a nutritional effect of glicentin on the intestinal mucosae. A similar gelatin solution containing no glicentin was given for the same period of time as a control for comparison. Twelve hours after completion of the final administration, the rats were sacrificed and subjected to removal of the small intestine in the region from the Treitz's ligamentum to the cecum. The removed small intestine was cut at the central site to separate it into the jejunum and the ileum. The lumen of each of the intestinal tracts was gently washed with an aqueous physiological saline solution. The intestinal tracts were longitudinally incised, respectively, and tissues were removed of a portion of the jejunum in proximity to the duodenum, a portion of the ileum in proximity to the cecum and a portion around the boundary between the jejunum and the ileum and fixed in a 3.7% formalin solution as the proximal, distal and middle sites of the small intestine, respectively. Mucosae were collected by ablation with a spatula from the remainder of the intestinal tracts and weighed, respectively.
The tissues fixed in the formalin solution were embedded in paraffin to form a preparation which was stained with hematoxylin-eosin and measured for height of the villi using an optical microscope.

The subject of series [1] is motility of the digestive tracts. Description: Example 3: motility of the digestive tracts after meal in dogs (strain gauge transducers). The class given is in vivo, hybrid dogs. Here is the method: An experiment was performed as described below in order to examine the action of glicentin on a motility of the digestive tracts after meal.
Six hybrid dogs weighing 16-18 kg were sutured with strain gauge transducers (manufactured by Star Medical, F121S) at a site of the gastric antrum 4 cm from the pyloric ring, a site of the duodenum for the main incurrent pancreatic duct and a site of the jejunum 10 cm from the Treitz's ligamentum, respectively, to measure the contractile force intensity of the circular muscle. Recovery period for the suture was 2 weeks.
Three of the 6 dogs were intravenously given over 1 hour 15 ml of a physiological saline solution in which 400 pmol of glicentin had been dissolved per kg of bodyweight. The remaining three received an aqueous physiological solution containing no glicentin in the same way as above as a control for comparison. The dogs were fed on 15 g of a solid diet (SD®, manufactured by Oriental Yeast K.K.) and 15 g of Vitaone® (manufactured by Nihon Pet Food K.K. and Kyodo Shiryo K.K.) per kg of bodyweight simultaneously with the intravenous administration.
Then, the motor activity of the digestive tracts and length of the post-feed period were measured. Intensity of the contraction in the post-feed period was integrated for the two-hour measurements and evaluated in comparison with the mean level of the signal peak in phase 3 motor activity of the intestinal tracts in hunger and taken as a motor index.

A further series has as its system male BALB/c mice. Description: Intraperitoneal administration to mice, observation of appearance. The class given is in vivo. Conditions: 10 mg/kg intraperitoneally, 6 weeks age.
Another series has as its system intestinal mucosa. Description: Example 2: weight of intestinal mucosa in rats, glicentin compared with related peptides. The following applies: 1 nmol per rat s.c. The class given is in vivo.
The mark [2] stands for this setting: 10 μg s.c. every 12 hours for 7 days.
The mark [3] stands for this setting: 10 μg s.c. every 12 hours for 7 days, hematoxylin-eosin, optical microscope.
Where [4] appears, read: 400 pmol/kg i.v. over 1 hour, post-feed contraction integrated over two hours, relative to phase 3 peak in hunger.
The mark [5] stands for this setting: 400 pmol/kg i.v., versus control.

B1: glicentin (protein)
chain: RSLQDTEEKSRSFSASQADPLSDPDQMNEDKRHSQGTFTSDYSKYLDSRRAQDFVQWLMNTKRNRNNIA
notes: peptide of 69 amino acid residues, one of the enteroglucagons; human glicentin prepared by genetic engineering procedure
For B1, in the series with intestinal mucosae (setting [2]), the Ileal mucosal weight amounted to 1.04 g, the “Ileal mucosal weight per 100 g bodyweight” value is on record as 0.57 g/100 g bodyweight, the Jejunal mucosal weight turned out to be 1.3 g and the “Jejunal mucosal weight per 100 g bodyweight” value worked out at 0.75 g/100 g bodyweight. For the same molecule, in the series with intestinal mucosae (setting [2]), the “Length of small intestine” value was determined as 107.0 cm, the “Length of small intestine per 100 g bodyweight” value was determined as 66.4 cm/100 g bodyweight, the “Whole small intestinal mucosal weight” value came out at 2.38 g and the “Whole small intestinal mucosal weight per 100 g bodyweight” value came to 1.32 g/100 g bodyweight. In addition, in the series with intestinal mucosae (setting [3]), the “Villous height in distal intestine” value was determined as 216 ± 8.4 μm, the “Villous height in middle intestine” value came to 354 ± 7.5 μm and the “Villous height in proximal intestine” value worked out at 546 ± 18.6 μm. In the series on intestinal mucosae (versus control group), the “effect on ileal mucosa (in words)” value is “tendency to increase”; the “effect on jejunal mucosal weight (in words)” value is “significantly increases”; the “effect on length of the small intestine (in words)” value was “tendency to increase”; the “effect on whole small intestinal mucosal weight including jejunum and ileum (in words)” value was “significantly increases”. In addition, the “Length of post-feed period” value in series [1] (400 pmol/kg i.v. over 1 hour, given with feeding) was 13.6 ± 1.0 h. Further, in series [1] (setting [4]), the “Motor index, duodenum” value amounted to 0.675 ± 0.4; the “Motor index, jejunum” value came to 1.087 ± 0.2; the “Motor index, stomach vestibulum” value came out at 0.878 ± 0.1. In series [1] (setting [5]), the “influence upon the length of the post-feed period (in words)” value is listed as “no influence” and the “post-feed motility in the vestibulum of stomach (in words)” value was “inhibited”. Further, the change in appearance result in the series with male BALB/c mice is “no change in appearance is observed”. Moreover, the “effect on the weight of intestinal mucosa (in words)” value with intestinal mucosa (versus control group) was “significantly increases”. In the series with intestinal mucosa (third quarter of the small intestine from the duodenum), the Intestinal mucosal weight is 0.614 ± 0.025 g.
